{"source": "patent US9926369B2", "about": "“Methods for treating hepatocellular cancer by administering an anti-Ang-2 antibody” (Regeneron Pharmaceuticals, Inc., priority 2009, dated 2018)", "key": {"[1]": {"target": "Dimeric Monkey Ang-2FD-hFc", "sequence (as listed by the source)": "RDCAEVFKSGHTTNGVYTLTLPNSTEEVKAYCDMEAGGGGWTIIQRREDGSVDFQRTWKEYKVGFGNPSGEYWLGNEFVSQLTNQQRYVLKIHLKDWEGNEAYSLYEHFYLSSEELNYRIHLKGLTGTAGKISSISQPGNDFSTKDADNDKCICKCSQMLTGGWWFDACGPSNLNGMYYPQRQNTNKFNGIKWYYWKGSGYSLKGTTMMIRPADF", "test": "Cross-species SPR binding at 25° C. or 37° C., monkey Ang-2FD-hFc", "method": "Additional binding experiments were conducted using selected anti-Ang-2 antibodies at two different temperatures to further assess cross-species affinity. Each selected antibody or control construct was captured at a flow rate of 40 μL/min for 1 minute on a goat anti-human kappa polyclonal antibody surface created through direct chemical coupling to a BIACORE™ chip to form a captured antibody surface. Human, monkey and mouse Ang-2FD-Fc at a concentration of 25 nM or 0.78 nM was injected over the captured antibody surface at a flowrate of 60 μL/min for 3 minutes, and antigen-antibody dissociation was monitored in real time for 20 minutes at either 25° C. or 37° C."}, "hAng-2-WT": {"target": "T1, hAng-2-WT (Homo sapiens, UniProt O15123)", "T1 construct": "wild-type human Ang-2 (hAng-2-WT)", "T1 sequence (O15123 19-496)": "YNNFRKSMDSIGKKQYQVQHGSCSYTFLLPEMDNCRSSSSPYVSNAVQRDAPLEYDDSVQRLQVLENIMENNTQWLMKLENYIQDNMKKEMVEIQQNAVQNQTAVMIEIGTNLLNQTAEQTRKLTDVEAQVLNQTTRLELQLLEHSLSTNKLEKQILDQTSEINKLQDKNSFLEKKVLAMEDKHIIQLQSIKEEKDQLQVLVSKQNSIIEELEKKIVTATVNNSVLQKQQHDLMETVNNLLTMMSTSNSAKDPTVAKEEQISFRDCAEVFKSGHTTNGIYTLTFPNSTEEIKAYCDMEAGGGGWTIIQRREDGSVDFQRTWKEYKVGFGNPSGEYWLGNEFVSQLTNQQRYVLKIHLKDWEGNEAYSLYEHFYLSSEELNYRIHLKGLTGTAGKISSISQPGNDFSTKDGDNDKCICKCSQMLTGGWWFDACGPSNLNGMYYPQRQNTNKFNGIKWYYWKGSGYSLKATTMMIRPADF", "test": "SPR binding to wild-type human Ang-2 (Table 8)", "method": "Equilibrium dissociation constants (KD values) for the binding of selected purified Ang-2 antibodies to dimeric fibrinogen-like domain of human (SEQ ID NO: 519), mouse (Mus musculus; SEQ ID NO: 520) and monkey (Macca fascicularis; SEQ ID NO: 521) Ang-2 (Ang-2FD) conjugated to human IgG1 (SEQ ID NO:528) were determined by surface kinetics using a real-time biosensor surface plasmon resonance assay. Antibody was captured on a goat anti-mouse IgG polyclonal antibody surface, a goat anti-human κ polyclonal antibody (Southern Biotech, Birmingham, Ala.) surface or a goat anti-human IgG polyclonal antibody (Jackson Immuno Research Lab, West Grove, Pa.) surface created through direct amine coupling to a BIACORE™ CM5 sensor chip to form a captured antibody surface. Varying concentrations (ranging from 50 nM to 6.25 nM) of protein were injected at 100 μl/min over captured antibody surface for 90 seconds. Antigen-antibody binding and dissociation were monitored in real time at room temperature. Kinetic analysis was performed to calculate KD and half-life of antigen/antibody complex dissociation.\nIn yet another experiment, KD values for selected purified antibodies that bind to wild-type human Ang-2 (hAng-2-WT; SEQ ID NO: 518) and the fibrinogen-like domain of human Ang2 (hAng-2FD) were determined (as described above)."}, "hAng-1-WT": {"target": "T2, hAng-1-WT (Homo sapiens, UniProt Q15389)", "T2 construct": "Full-length wild-type human Ang-1 or Ang-2 at a concentration of 25 nM or 0.78 nM", "T2 sequence (Q15389 16-498)": "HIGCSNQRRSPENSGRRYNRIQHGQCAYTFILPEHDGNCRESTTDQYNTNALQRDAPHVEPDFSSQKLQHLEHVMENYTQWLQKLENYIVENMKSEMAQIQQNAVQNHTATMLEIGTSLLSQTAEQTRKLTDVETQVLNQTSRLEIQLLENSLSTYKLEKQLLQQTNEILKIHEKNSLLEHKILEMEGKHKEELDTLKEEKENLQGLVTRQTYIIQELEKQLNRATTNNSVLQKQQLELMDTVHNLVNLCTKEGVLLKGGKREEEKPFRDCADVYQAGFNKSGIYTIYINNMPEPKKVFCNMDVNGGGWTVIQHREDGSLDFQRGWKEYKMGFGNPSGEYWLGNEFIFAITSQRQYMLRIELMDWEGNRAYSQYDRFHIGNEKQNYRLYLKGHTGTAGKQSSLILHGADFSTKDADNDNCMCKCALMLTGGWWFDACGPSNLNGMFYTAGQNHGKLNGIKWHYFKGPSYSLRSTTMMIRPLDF", "test": "SPR binding to full-length wild-type human Ang-1 (preferential binding)", "method": "Binding experiments (plasmon resonance assays) were conducted to ascertain whether selected antibodies bound to both Ang-2 and Ang-1 or if they preferentially bound to Ang-2 only. Each selected antibody or control construct was captured at a flow rate of 40 μL/min for 1 minute on a goat anti-human IgG polyclonal antibody surface created through direct chemical coupling to a BIACORE™ chip to form a captured antibody surface. Full-length wild-type human Ang-1 or Ang-2 at a concentration of 25 nM or 0.78 nM were injected over the captured antibody surface at a flowrate of 60 μL/min for 3 minutes, and antigen-antibody dissociation was monitored in real time for 20 minutes at either 25° C. or 37° C."}, "WT Ang-2FD-mFc construct": {"target": "WT Ang-2FD-mFc construct (Homo sapiens, UniProt O15123)", "sequence (O15123 with tags, fused parts or gaps)": "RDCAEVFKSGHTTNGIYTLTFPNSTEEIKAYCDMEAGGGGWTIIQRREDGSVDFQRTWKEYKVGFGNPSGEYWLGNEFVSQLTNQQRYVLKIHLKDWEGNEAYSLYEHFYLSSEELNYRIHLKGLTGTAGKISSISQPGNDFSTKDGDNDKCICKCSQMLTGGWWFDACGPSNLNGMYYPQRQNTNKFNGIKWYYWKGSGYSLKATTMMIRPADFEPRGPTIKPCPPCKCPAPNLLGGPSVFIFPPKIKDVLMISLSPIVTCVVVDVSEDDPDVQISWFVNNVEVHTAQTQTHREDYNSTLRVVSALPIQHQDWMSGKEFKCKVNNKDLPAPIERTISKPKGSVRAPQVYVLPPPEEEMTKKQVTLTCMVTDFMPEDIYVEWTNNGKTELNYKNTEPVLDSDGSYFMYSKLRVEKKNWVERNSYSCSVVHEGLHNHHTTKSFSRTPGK", "test": "Ang-2FD-mFc point mutant binding experiment (SPR), wild-type", "conditions": "WT hAng-2FD-mFc captured; antibody/peptibody at 100 nM; 25° C.", "excerpt": "To further characterize binding between hAng2 and anti-hAng2 mAbs of the invention, seven variant hAng2-FD-mFc proteins were generated, each containing a single point mutation. Amino acids selected for mutation were based on the difference in sequence between hAng-2 and hAng-1 in the region that interacts with hTie-2 (FIG. 1). In particular, amino acids within the fibrinogen-like domain (FD) of Ang-2 which are believed to interact with Tie-2 based on crystal structure analysis, but which differ from the corresponding amino acid in Ang-1, were individually mutated to the corresponding hAng-1 residue. The results of this example indicate the amino acid residues of hAng-2 with which the Ang-2 preferential binding antibodies interact.\nIn this experiment, each of the seven hAng-2FD-mFc mutant proteins were captured (˜147-283 RU) on an anti-mouse-Fc surface created through direct chemical coupling to a BIACORE™ chip. Then each Ang-2 antibody (or peptibody, as the case may be) at 100 nM was injected over the captured mFc-tagged hAng-2FD protein surface at a flowrate of 50 μl/min for 180 sec, and the dissociation of variant hAng2-FD-mFc and antibody was monitored in real time for 20 min at 25° C."}}, "data": [{"substance": "H1H685P: human anti-Ang-2 antibody, HCVR/LCVR SEQ ID NOs 18/20; also referred to as mAb1 [Antibody H1H685P]", "values": [{"measurement": "Kd", "setting": "[1]; 25° C.", "value": 0.022, "unit": "nM"}, {"measurement": "Kd", "setting": "[1]; 37° C.", "value": 0.0721, "unit": "nM"}, {"measurement": "Kd", "setting": "hAng-2-WT", "value": 0.0476, "unit": "nM"}, {"measurement": "KD, binding to hAng-1-WT", "setting": "hAng-1-WT; 25° C.", "value": "No binding"}, {"measurement": "ka, binding to hAng-1-WT", "setting": "hAng-1-WT; 25° C.", "value": "No binding"}, {"measurement": "kd, binding to hAng-1-WT", "setting": "hAng-1-WT; 25° C.", "value": "No binding"}, {"measurement": "KD, binding to hAng-1-WT", "setting": "hAng-1-WT; 37° C.", "value": "No binding"}, {"measurement": "ka, binding to hAng-1-WT", "setting": "hAng-1-WT; 37° C.", "value": "No binding"}, {"measurement": "kd, binding to hAng-1-WT", "setting": "hAng-1-WT; 37° C.", "value": "No binding"}, {"measurement": "Binding to Ang-1 (in words)", "setting": "hAng-1-WT; SPR", "value": "does not bind to Ang-1"}, {"measurement": "Kd", "setting": "WT Ang-2FD-mFc construct", "value": 0.0223, "unit": "nM"}, {"measurement": "RU", "setting": "WT Ang-2FD-mFc construct", "value": 210.70, "unit": "RU"}]}]}
